Data as given in PMC9789152.
Values joined by “and” are separate entries in the source; they are usually repeats but may differ in a detail not shown here. Identical values can stand only once.

Experiments:
[1] = biological target: S. mutans surface protein antigen I/II (Ag I/II), proline repeat working fragment (Streptococcus mutans UA159); assay: cryo-TEM of self-assembly; protein stock (10 mg/mL, pH 3.5) diluted 10 times with 4 mM PBS (pH 7.4 in the methods, pH 8.0 in the results); 10 min assembly reaction, plunge-frozen
[2] = biological target: recombinant human amelogenin (AmH) (human); assay: as above

Row | Substance | stoichiometry N [1] | stoichiometry N [2]
1 | S. mutans surface protein antigen I/II (Ag I/II), proline repeat working fragment (domain or fragment) | 6 monomers and 10 monomers | –
2 | recombinant human amelogenin (AmH) (natural protein) | – | 6 monomers and 8 monomers
